Blank lines part the entries; values can stand above or below the molecule they belong to.
Assays:
Assay type in all cases: cell-based
[1] = target: T1, LMO2-iDAb LMO2dm3 interaction (Homo sapiens, UniProt P25791); test: BRET competition / dose-response assay on LMO2-iDAb LMO2dm3; conditions: HEK-293T, HEK293T, Fig. 4C
T1 construct: LMO2 cDNA was cloned into the pEF-RLuc8-MCS and pEF-MCS-RLuc8 plasmids; expressed in transfected cells; host or cells: HEK293T
T1 sequence (P25791 1-158): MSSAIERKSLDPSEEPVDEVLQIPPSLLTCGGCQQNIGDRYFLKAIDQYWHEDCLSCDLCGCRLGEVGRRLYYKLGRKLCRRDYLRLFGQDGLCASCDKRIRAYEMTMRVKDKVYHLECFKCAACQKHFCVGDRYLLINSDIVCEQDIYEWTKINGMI
Method: (§1) For all BRET experiments (titration curves and competition assays), 650,000 HEK293T were seeded in each well of six-well plates. After 24 hours at 37°C, cells were transfected with a total of 1.6 μg of DNA mix, containing the donor + acceptor ± competitor plasmids, using Lipofectamine 2000 transfection reagent (Thermo Fisher Scientific). For the BRET donor saturation assays, cells were transfected with 0.05 μg of donor (LMO2) and with an increased amount of acceptor plasmid (0.025, 0.05, 0.1, 0.25, 0.5, 0.75, and/or 1 μg of DNA) equalized to a total amount of 1.6 μg of DNA with an empty vector pEF-cyto-myc. […] Cells were detached 24 hours later, washed with phosphate-buffered saline (PBS), and seeded in a white 96-well plate (clear bottom, PerkinElmer, catalog no. 6005181) in Opti-MEM without phenol red medium complemented with 4% FBS, and cells were incubated for an additional 20 to 24 hours at 37°C before the BRET assay reading. […]
(§2) BRET2 signal was determined immediately after injection of coelenterazine 400a substrate (10 μM final concentration) to cells (Cayman Chemicals) using a CLARIOstar instrument (BMG Labtech) with a luminescence module. Total GFP^2 fluorescence was detected with excitation and emission peaks set at 405 and 515 nm, respectively. Total RLuc8 luminescence was measured with the luminescence 400- to 700-nm wavelength filter. […]

[2] = target: T2, LMO2-LDB1 interaction (Homo sapiens, UniProt P25791); test: BRET assay on LMO2-LDB1; conditions: BRET competition, fig. S7E
T2 construct: LMO2 cDNA was cloned into the pEF-RLuc8-MCS and pEF-MCS-RLuc8 plasmids; expressed in transfected cells; host or cells: HEK293T
T2 sequence (P25791 1-158): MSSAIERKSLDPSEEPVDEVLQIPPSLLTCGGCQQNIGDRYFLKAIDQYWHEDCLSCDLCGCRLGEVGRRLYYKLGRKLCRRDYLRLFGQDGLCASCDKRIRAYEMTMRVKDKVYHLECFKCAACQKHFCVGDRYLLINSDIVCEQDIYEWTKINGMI
Method: as §1, §2

[3] = target: T3, LMO2-TAL1 + E47 interaction (Homo sapiens, UniProt P25791); test: BRET assay on LMO2-TAL1 + E47; conditions: BRET competition, fig. S7D
T3 construct: LMO2 cDNA was cloned into the pEF-RLuc8-MCS and pEF-MCS-RLuc8 plasmids; expressed in transfected cells; host or cells: HEK293T
T3 sequence (P25791 1-158): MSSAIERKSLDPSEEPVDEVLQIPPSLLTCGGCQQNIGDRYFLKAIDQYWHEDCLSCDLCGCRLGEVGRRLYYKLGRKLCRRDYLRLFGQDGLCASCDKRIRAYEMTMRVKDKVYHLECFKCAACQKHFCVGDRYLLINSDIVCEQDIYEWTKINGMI
Method: as §1, §2

[4] = target: T4, LMO2 (Homo sapiens, UniProt P25791); test: Single-dose BRET competition of LMO2-RLuc8 and GFP2-iDAb LMO2dmx by unmutated iDAb LMO2; conditions: lowest dose of competitor 0.1 μg, label = GFP2-iDAb acceptor, Fig. 2D
T4 construct: LMO2 cDNA was cloned into the pEF-RLuc8-MCS and pEF-MCS-RLuc8 plasmids; expressed in transfected cells; host or cells: HEK293T
T4 sequence (P25791 1-158): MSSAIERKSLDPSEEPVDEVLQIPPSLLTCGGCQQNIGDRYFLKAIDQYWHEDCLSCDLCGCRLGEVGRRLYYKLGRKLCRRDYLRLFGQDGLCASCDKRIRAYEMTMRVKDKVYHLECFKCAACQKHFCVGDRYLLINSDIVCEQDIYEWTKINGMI

inhibition at 20 µM [1]: 45%
Molecule: COc1ccc(CN2CCN(c3nc(C(=O)Nc4ccc(-n5cccc5)cc4)co3)CC2)cc1 [Abd-L19]

effect of coexpressed nontagged iDAb on LMO2-LDB1 BRET signal [2]: inhibited BRET signal
effect of coexpressed nontagged iDAb on LMO2-TAL1 + E47 BRET signal [3]: inhibited BRET signal
B1: iDAb LMO2: intracellular VH single domain antibody binding to LMO2 (antibody, V domains shown)
VH: EVQLLESGGGLVQPGGSLRLSCAASGFSFSHSPMNWVRQAPGKGLEWVSYISYNSSSIYYADSVKGRFTISRDNSKNTLYLQMNSLRAEDTAVYYCARGLTESLELTADWFDYWGQGTLVTVSS

percentage inhibition by iDAb LMO2 compared to iDAb Ctl of the interaction of the labelled acceptor iDAb with LMO2 [4]: ~ 90%
B2: iDAb LMO2dm3: iDAb LMO2 mutant S28G, H31G, S55A, E102A, T107A, chosen for the screen (antibody, V domains shown)
VH: EVQLLESGGGLVQPGGSLRLSCAASGFGFSGSPMNWVRQAPGKGLEWVSYISYNASSIYYADSVKGRFTISRDNSKNTLYLQMNSLRAEDTAVYYCARGLTASLELAADWFDYWGQGTLVTVSS
